In paper PMC9926112:

Molecular target: GST-fused N-terminal fragment of human β-spectrin (GST-hNβSp) (human) (UniProt P11277)
Test: SPR; Biacore X100; GST-hNβSp (500 nM) captured on a CM5 chip by anti-GST antibody; h4.1R recombinants (GST cleaved) 150-1000 nM as analyte; PBS, 25 °C; regeneration in 10 mM Glycine-Cl pH 2.1

Chain of UniProt P11277 (P11277 1-527): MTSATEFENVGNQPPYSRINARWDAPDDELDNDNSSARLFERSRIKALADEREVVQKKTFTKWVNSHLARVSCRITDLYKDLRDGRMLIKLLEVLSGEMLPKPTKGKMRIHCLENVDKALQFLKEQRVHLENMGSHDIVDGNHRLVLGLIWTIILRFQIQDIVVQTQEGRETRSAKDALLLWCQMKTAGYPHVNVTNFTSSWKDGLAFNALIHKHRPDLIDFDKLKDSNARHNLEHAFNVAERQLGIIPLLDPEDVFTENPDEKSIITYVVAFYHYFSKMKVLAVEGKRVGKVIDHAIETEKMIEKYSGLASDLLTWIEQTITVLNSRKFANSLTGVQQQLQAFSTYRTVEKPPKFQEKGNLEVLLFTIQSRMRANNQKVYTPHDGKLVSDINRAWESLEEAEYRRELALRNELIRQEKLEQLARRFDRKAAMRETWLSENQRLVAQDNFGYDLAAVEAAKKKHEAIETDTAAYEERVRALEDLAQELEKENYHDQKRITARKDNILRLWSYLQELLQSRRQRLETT

Kd [µM] | kon [M⁻¹ s⁻¹] | Substance
0.121 | 55100 | human 4.1R with the PE and e14 sequences of alpaca 4.1R (h4.1R[PE14]), cleaved from GST
0.633 | 5040 | human protein 4.1R, wild type (h4.1R WT), cleaved from GST (natural protein)
